# Source: FireProtDB (doi:10.1002/pro.5560041207)
# B1: Thioredoxin, P08058 (parent)
# chain: MSTVPVTDATFDTEVRKSDVPVVVDFWAEWCGPCRQIGPALEELSKEYAGKVKIVKVNVDENPESPAMLGVRGIPALFLFKNGQVVSNKVGAAPKAALATWIASAL
# Variants of: B1
# Settings: Cereibacter sphaeroides, pH 7.4, 23 °C, Urea, Fluorescence, whole UniProt chain shown
Variant,ddG of mutation (higher = less stable) (Potassium phosphate 20 mM) [kcal/mol],unfolding free energy (Potassium phosphate 20 mM) [kcal/mol],unfolding free energy (Potassium phosphate 20mM) [kcal/mol]
F26L,3.4,4.8,4.78
F26V,4.8,3.4,3.35
F26Y,,,7.89
F26I,,,4.3
